These results are taken from patent publication US20220298231A1 (AC IMMUNE, published 2022).

Where no end group is shown, it is not given here. The star is where a group is joined. Biotin = O=C1N[C@H]2[C@H](CS[C@H]2CCCCC(=O)*)N1; Ahx = NCCCCCC(=O)O

Assay [1] concerns the target T1, 91-105aa.
T1 construct: also called alpha-synuclein peptide 91-105
T1 peptide: {Biotin-Ahx}-ATGFVKKDQLGKNEE
Nature of the assay: indirect ELISA on biotinylated 15-mer peptide (streptavidin plate), supernatant 1/100. (In general: In an ELISA, binding on a coated surface is turned into a signal by an enzyme label.)
Protocol: (§1) Epitope mapping for the antibodies derived from stable hybridoma clones was determined using an indirect ELISA on a library of 15-mer peptides covering the entire sequence of human alpha-synuclein from 1 to 140aa. […] Results are expressed as optical density (O.D.). Each bar represents data for an individual antibody.
(§2) Serum-free supernatants were harvested from stable hybridomas. The supernatants containing antibodies of interest were then screened by an indirect ELISA assay to determine epitopes. Epitopes were first determined using a library of 15-mer peptides covering the entire sequence of human alpha-synuclein protein, spanning amino acids (aa) 1-140 with 9aa offset and 6aa overlap. […] Briefly, streptavidin-coated ELISA plates were blocked overnight at 4° C. […] Plates were washed with PBS/0.05% Tween® 20 and then incubated with the hybridoma supernatants at 1/100 dilution for 1 hour at 25° C. […] After final wash, plates were incubated 2 hours at 25° C. with alkaline phosphatase substrate (p-nitrophenyl phosphate disodium hexahydrate; pNPP, S0942, Sigma) and read the absorbance optical density (O.D.) signal at 405 nm using an ELISA plate reader (Tecan, Switzerland).

Assay [2] deals with T2, 82-96aa.
T2 construct: also called alpha-synuclein peptide 82-96
T2 peptide: {Biotin-Ahx}-VEGAGSIAAATGFVK
The experiment in a line: 15-mer peptide ELISA.
Protocol: as §1, §2

Assay [3] deals with T3, 37-51aa.
T3 construct: also called alpha-synuclein peptide 37-51
T3 peptide: {Biotin-Ahx}-VLYVGSKTKEGVVHG
The experiment in a line: 15-mer peptide ELISA.
Protocol: as §1, §2

For assay [4], the target named is T4, 1-15aa.
T4 construct: also called alpha-synuclein peptide 1-15
T4 peptide: {Biotin-Ahx}-MDVFMKGLSKAKEGV
Nature of the assay: indirect ELISA on biotinylated 15-mer peptide (streptavidin plate), supernatant 1/100.
Protocol: as §1, §2

The target in assay [5] is T2, 82-96aa. The description is as above.
Protocol: as §1, §2
The next assay has as its target T5, 100-114aa.
T5 peptide: {Biotin-Ahx}-LGKNEEGAPQEGILE
The experiment in a line: 15-mer peptide ELISA.

The target in the next assay is T6, 109-123aa.
T6 peptide: {Biotin-Ahx}-QEGILEDMPVDPDNE
Nature of the assay: 15-mer peptide ELISA.

The target in assay [6] is T4, 1-15aa. Nature of the assay: 15-mer peptide ELISA.
Protocol: as §1, §2
For assay [7], the target named is T1, 91-105aa. The experiment in a line: indirect ELISA on biotinylated 15-mer peptide (streptavidin plate), supernatant 1/100.
Protocol: as §1, §2
For assay [8], the target named is T2, 82-96aa. The experiment in a line: 15-mer peptide ELISA.
Protocol: as §1, §2
In assay [9] the target is T1, 91-105aa. Nature of the assay: 15-mer peptide ELISA.
Protocol: as §1, §2
Assay [10] addresses human full-length alpha-synuclein (human, UniProt P37840 1-140). The experiment in a line: SPR, mAb captured. Background: In SPR one partner is held on a chip, and binding of the other changes the refractive index at the surface.
Protocol: (§3) Immobilization levels were evaluated following ethanolamine capping (Bound) and finally following regeneration (Final). Non-covalent immobilization of alpha-synuclein antibodies was performed using a target immobilization method of 2000 response units (RU).
(§4) Binding affinity of alpha-synuclein antibodies to monomeric or fibrillar alpha-synuclein species was performed using a single-cycle kinetics method. […] A dissociation phase of 900 sec followed the final 50 nM injection. Regeneration of the sensor to the goat anti-mouse antibody layer was achieved using 3 regenerations of 10 mM Glycine pH 1.7. […] Regeneration of the sensor to the goat anti-mouse antibody layer was achieved using 3 regenerations of 10 mM Glycine pH 1.7. Results obtained from single-cycle kinetics were evaluated by Biacore T200 evaluation software with 1:1 binding homogenous Langmuir model (with a global Rmax) with Cycle 5 as a blank subtraction. The following kinetic parameters were obtained: on-rate (ka), off-rate (kd), affinity constant (KD, ratio of kd by ka), maximum response (Rmax), and goodness of fit (Chi2).
(§5) Non-covalent capture of the alpha-synuclein antibodies was performed in three separate runs.
In the next assay the target is alpha-synuclein fibrils (Homo sapiens (Human), UniProt P37840 1-140). The experiment in a line: SPR, mAb captured.
The target in assay [11] is 28-42aa. The experiment in a line: 15-mer peptide ELISA.
Protocol: as §1, §2
The target in assay [12] is 28-42aa. The experiment in a line: indirect ELISA on biotinylated 15-mer peptide (streptavidin plate), supernatant 1/100.
Protocol: as §1, §2
For assay [13], the target named is T3, 37-51aa. The assay is described as above.
Protocol: as §1, §2

Protocol for 100-114aa: as §1, §2
Protocol for 109-123aa: as §1, §2
Protocol for alpha-synuclein fibrils: as §3, §4, §5

B1: ACI-7088-4305H7-Ab1 (antibody, V domains shown)
VH: EVQLQQSGAELVRPGASVKLSCTASGFNIKDDYMHWVKQRPEQGLEWIGWIDPENGDTEYASKFQGKATMIADTSSNTAYLQLSSLTSEDTAVYYCKTWGTTQALFPYWGQGTLVTVSS
VL: DIVMTQSQKFMSTSVGDRVSITCKASQNVGTAVGWYQQKAGQSPKLLIHSASNRYTGVPDRFTGSGSGTDFTLTINNMQSEDLADYFCQQYRSYPLTFGAGTKLELK
notes: mouse hybridoma mAb; also called 4305H7A4
As to B1, the binding result in the assay with 91-105aa [1] is given as “binds”; with 82-96aa [2] it was “no binding (tested: supernatant 1/100)”; in the assay with 37-51aa [3] it was “no binding (tested: supernatant 1/100)”; with 1-15aa [4], “binds”.

B2: ACI-8033-8C10-Ab1 (antibody, V domains shown)
VH: DVQLQESGPGLVKPSQSLSLTCSVTGQSITSGYYWNWIRQFPGNKLEWMGYISNDGSSKTNPSLTNRISVTRDTSKNQVFLKLKSVTTEDTATYYCVRGDQHWGQGTALTVSS
VL: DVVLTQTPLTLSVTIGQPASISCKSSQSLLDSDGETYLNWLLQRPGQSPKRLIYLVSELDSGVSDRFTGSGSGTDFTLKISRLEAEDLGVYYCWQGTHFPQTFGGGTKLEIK
notes: mouse hybridoma mAb; also called 917.8C10C6G3
As to B2, the results for the binding result with 82-96aa [5], with 100-114aa and in the assay with 109-123aa were “binds”, “no binding (tested: supernatant 1/100)” and “no binding (tested: supernatant 1/100)”, respectively.

B3: ACI-7088-4303H6-Ab1 (antibody, V domains shown)
VH: EVQLQQSGAELVRPGASVKLSCTASGFNIQDDYMHWVKQRPEQGLEWIGWIDPENGDTEYASKFQGKATLTADTSSNTAYLQLSRLTSEDTAVYYCTTAGSGVQLFDYWGQGTTLTVSA
VL: DILMTQSQKFMSTSVGDRVSVTCKASQNVGTNVAWYQQKPGQSPKPLISSASSRYSGVPDRFTGSGSGTDFTLTISNVQSEDLADYFCQQYNRYPLTFGAGTKLELK
notes: mouse hybridoma mAb; tied by the hybridoma code 4303H6D7; also called 4303H6D7
Take B3: the binding result with 91-105aa [1] was “binds”; with 82-96aa [2], “no binding (tested: supernatant 1/100)”; with 1-15aa [6] it was “no binding (tested: supernatant 1/100)”; with 37-51aa [3], “no binding (tested: supernatant 1/100)”.

B4: ACI-8033-4F3-Ab1 (antibody, V domains shown)
VH: EVQLQQSGPELVKPGASVKISCKASGYTFTDYYMNWVKQSHGKSLEWIGDINPNTGTNSYNQKFKGRASLTVDKFSSAAYMELRSLTSEDSAVYYCARTGYGDPISSYYYALDYWGQGTSVTVSS
VL: DIVMSQSPSSLAVSAGEKVTMSCKSSQSLLNSRTRKNYLAWYQQKPGQSPKLLIYWASTRESGVPDRFTGSGSGTDFTLTISSVQAEDLAVYYCKQSYNLWTFGGGTKLEIK
notes: mouse hybridoma mAb; also called 917.4F3F4G6
For the molecule B4, the binding result in the assay with 91-105aa [7] is “binds”; with 100-114aa, “no binding (tested: supernatant 1/100)”; with 109-123aa, “no binding (tested: supernatant 1/100)”; with 82-96aa [8], “no binding (tested: supernatant 1/100)”.

B5: ACI-7088-4303B6-Ab2 (antibody, V domains shown)
VH: EVQLQQSGPELVKPGASVKISCKASGYTFTDYYMNWVKQSHGKSLEWIGDINPNNGGTTYNQKFKDKATLTVDRSSSTAYMELRSLTSGDSAVYYCARSGYSGSRLYYAMDYWSQGSSVTVSS
VL: DIVMSQSPSSLAVSAREKVTMSCKSSQSLLNSRTRKNYLAWYQQKPGQSPKLLIFWASTRESGVPDRFTGSGSGTDFTLTISSVQAEDLAVYYCKQSYDLWTFGGGTKLEIK
notes: mouse hybridoma mAb; tied by the hybridoma code 4303B6C11; also called ACI-7088-4303B6-Ab1; 4303B6C11
Consider B5, for which the binding result with 91-105aa [9] is “no binding (tested: supernatant 1/100)”; in the assay with 82-96aa [2], “no binding (tested: supernatant 1/100)”; with 28-42aa [11], “no binding (tested: supernatant 1/100)”; with 37-51aa [3] it was “no binding (tested: supernatant 1/100)”; with 1-15aa [4], “binds”. In addition, the Kd in assay [10] came to 78.5 nM; with alpha-synuclein fibrils it was 9.5 nM. In addition, the koff in [10] was 0.106 s⁻¹; with alpha-synuclein fibrils it was 0.00013 s⁻¹. The kon in [10] was 1.35e+06 M⁻¹ s⁻¹; with alpha-synuclein fibrils, 13700 M⁻¹ s⁻¹.

B6: ACI-7088-4301H3-Ab2 (antibody, V domains shown)
VH: EVQLQQSGPELVKPGASVKISCKASGYTFADYFMNWVKQSHGKSLEWIGDINPNNGGTTYNQKFKGKATLTVDKSSNTAYMELRSLTSEDSAVYYCARGRNYAMDYWGQGTSVTVSS
VL: DIVMSQSPSSLAVSAGEKVTMSCKSSQSLLNSRTRKNYLAWYQQKPGQSPKLLIYSASTRESGVPDRFTGSGFGTDFTLTISSVQAEDLAVYYCKQSYDLWTFGGGTKLEIK
notes: mouse hybridoma mAb; also called 4301H3A5
As to B6, the binding result in the assay with 91-105aa [1] is given as “binds”; with 82-96aa [2], “no binding (tested: supernatant 1/100)”; in the assay with 1-15aa [6] it was “no binding (tested: supernatant 1/100)”; in the assay with 37-51aa [3] it was “no binding (tested: supernatant 1/100)”.

B7: ACI-8033-17F5-Ab1 (antibody, V domains shown)
VH: EVQLQQSGPELVKPGASVKISCKASGYTFTDYFMNWVKQSHGKSLEWIGDINPNIDVTNYNQKFKGKATLTVDKSSSTAYMELRSLTSEDSAVYYCARGRDYAMDFWGQGTSVTVSS
VL: DIVMSQSPSSLAVSAGEKVTMSCKSSQSLLNSRTRKNYLAWYQQKPGQSPKLLIYWASTRESGVPDRFTGSGSGTDFTLTISSVQAEDLAVYYCKQSYDLWTFGGGTKLEIK
notes: mouse hybridoma mAb; also called 917.17F5F5G9
For the molecule B7, the binding result with 91-105aa [7] is recorded as “binds”; with 100-114aa it was “no binding (tested: supernatant 1/100)”; with 109-123aa, “no binding (tested: supernatant 1/100)”; with 82-96aa [8] it was “no binding (tested: supernatant 1/100)”.

B8: ACI-7087-4119E10-Ab2 (antibody, V domains shown)
VH: QVQLQQSGAELVRPGASVTLSCKASGYTFSDYEMNWVKQTPVHGLEWIGAIDPETGGTAYNQKFKGKAILTSDKSSSTAYMELRSLTSEDSAVYYCTRFLLIDFDYWGQGTTLTVSS
VL: DVLMTQTPLSLPVSLGDQASISCRSSQSIVHSNGNTYLEWYLKKAGQSPKVLIYKVSNRFSGVPDRFSGSGSGTDFTLKISRVEAEDLGVYYCFQGSHVPYTFGGGTELEIK
notes: mouse hybridoma mAb; also called 4119E10D12
Consider B8, for which the binding result in the assay with 91-105aa [9] was “no binding (tested: supernatant 1/100)”; in the assay with 82-96aa [2], “no binding (tested: supernatant 1/100)”; with 1-15aa [6], “no binding (tested: supernatant 1/100)”; with 28-42aa [12], “binds”; with 37-51aa [13] it was “binds”.

B9: ACI-7088-4301D5-Ab2 (antibody, V domains shown)
VH: QVQLQQSGPELVRPGASVKISCKASGYRFTSYYIHWVKQRPGQGLEWIGWIYPGSDNTKHNDKFKGKATLTADTSSSTAYMQLSSLTSEDSAVYFCARDYDVGFGYWGQGTLVTVSS
VL: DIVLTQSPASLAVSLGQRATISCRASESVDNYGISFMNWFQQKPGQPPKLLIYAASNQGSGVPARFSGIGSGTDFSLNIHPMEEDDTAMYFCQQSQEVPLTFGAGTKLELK
notes: mouse hybridoma mAb; also called 4301D5B10
Consider B9, for which the binding result with 91-105aa [9] is “no binding (tested: supernatant 1/100)”; with 82-96aa [2], “no binding (tested: supernatant 1/100)”; with 1-15aa [6], “no binding (tested: supernatant 1/100)”; with 28-42aa [12] it was “binds”; in the assay with 37-51aa [13] it was “binds”.

B10: ACI-7089-4417G6-Ab1 (antibody, V domains shown)
VH: QVQLQQSGAELVRPGASVTLSCKASGYTFTGYEMHWVKQTPVHGLEWIGAIDPETGGTAYIQKFKGKATLTADKSSSTAYMELRSLTSEDSAVYYCTRGWDYFDYWGQGTTLTVSA
VL: DVVMTQTPLSLPVSLGDQASISCRSSQSLLHSNGFTYLHWYLQKPGQSPKLLIYRVSNRFSGVPDRFSGSGSGTDFTLKISRVEAEDLGVYFCSQSTHVPYTFGGGTKLEIK
notes: mouse hybridoma mAb; also called 4417G6B12
As for B10, the binding result in the assay with 91-105aa [9], with 82-96aa [2], in the assay with 1-15aa [6] and with 28-42aa [11] was “no binding (tested: supernatant 1/100)” throughout. Moreover, the Kd in [10] was 22.6 nM; with alpha-synuclein fibrils it was 48.7 nM. The koff in [10] is 5.58 s⁻¹; with alpha-synuclein fibrils it was 0.00874 s⁻¹. Also, the kon was 2.47e+08 M⁻¹ s⁻¹ in assay [10] and 179000 M⁻¹ s⁻¹ in the assay with alpha-synuclein fibrils.

A word on the Kd: it is the constant that tells how readily two partners part at equilibrium. A low value points to higher affinity. Usually koff stands for the first-order rate constant of dissociation. Broadly, the kon is the rate constant with which the complex forms. Low readings indicate slower complex formation, high ones faster complex formation.
